Molecular target: CD81-LEL (large extracellular loop of human CD81, amino acids 113-201) (human)
Assay: X-ray crystal structure; dimer in the asymmetric unit

- subunit interface: 986 Å^2
Substance: CD81-LEL (large extracellular loop of human CD81, amino acids 113-201) (receptor)
